Source: PMC9163516
Where two headings read alike, the source gives them in different places.

Tests used:
[1] = molecular target: biotinylated avi-tagged TGM-D3 (Heligmosomoides polygyrus); test: SPR; biotinylated avi-tagged TGM-D3 captured at 50-150 RU on neutravidin-coated CM-5 chip; TβRII variants injected in 25 mM Hepes, pH 7.4, 150 mM NaCl, 0.05% P20, 100 μl/min; 1:1 fit of duplicate or triplicate injection series
[2] = molecular target: biotinylated avi-tagged TβRII (UniProt P37173); test: SPR; biotinylated avi-tagged TβRII captured at 50-150 RU on neutravidin-coated CM-5 chip; WT TGM-D3 or TGM-D3 variants injected in 25 mM Hepes, pH 7.4, 150 mM NaCl, 0.05% P20, 100 μl/min; 1:1 fit of duplicate or triplicate injection series
[3] = molecular target: biotinylated avi-tagged TβRII (UniProt P37173); test: as above; remark: listed apart in the source
[4] = molecular target: TβRI ectodomain (UniProt P36897); test: ITC; TGM construct in the syringe (58-150 µM), 7.5 µM TβRI in the cell; 25 mM Hepes, 50 mM NaCl, 0.05% NaN3, pH 7.5, 25 °C; 1:1 model (Nitpic, Sedphat)
[5] = molecular target: biotinylated avi-tagged TβRII (UniProt P37173)
[6] = molecular target: TβRII ectodomain (UniProt P37173); test: ITC; competition: 150 μM mmTGF-β27M injected into 15 μM TβRII with 0, 6.0 or 12.0 μM TGM-D3; 25 mM sodium phosphate, 50 mM NaCl, pH 6.0, 35 °C; global fit of the three datasets to a 1:1 model with competition
[7] = molecular target: TβRI ectodomain (UniProt P36897); test: ITC; TGM construct titrated into TβRI in the cell; 25 mM Hepes, 50 mM NaCl, 0.05% NaN3, pH 7.5, 25 °C; 1:1 model
[8] = molecular target: TβRII ectodomain (UniProt P37173); test: ITC; TGM construct titrated into TβRII in the cell; 25 mM sodium phosphate, 50 mM NaCl, pH 6.0, 35 °C; 1:1 model
[9] = molecular target: biotinylated avi-tagged TβRII (UniProt P37173); test: SPR; BIAcore X100; biotinylated avi-tagged TβRI or TβRII captured on neutravidin-coated CM-5 chip (results say streptavidin) at 50-150 RU; TGM constructs injected as 2-fold dilution series in 25 mM Hepes, pH 7.4, 150 mM NaCl, 0.005% P20, 100 μl/min; 1:1 kinetic fit of a single injection series
[10] = molecular target: biotinylated avi-tagged TβRI (UniProt P36897); test: as above
[11] = molecular target: TβRII ectodomain (UniProt P37173); test: ITC; TGM construct in the syringe (300-320 µM), 15 µM TβRII in the cell; 25 mM sodium phosphate, 50 mM NaCl, pH 6.0, 35 °C; 1:1 model (Nitpic, Sedphat)
[12] = molecular target: TβRI ectodomain (UniProt P36897); test: ITC; TGF-β3(TβRII)2 complex titrated into TβRI; 25 mM Hepes, 50 mM NaCl, 0.05% NaN3, pH 7.5, 30 °C

TβRII E142Q (from UniProt P37173 23-166) (receptor)
fold increase of KD against WT [1]: 17 fold

TGM-D3 R198A (domain or fragment)
fold increase of KD against WT [2]: > 30 fold
fold increase of KD against WT [3]: > 20 fold

TGM-D12 (domain or fragment)
stoichiometry N [4]: 1.2

TGM-D2 (domain or fragment)
Kd [4]: 1500 nM
stoichiometry N [4]: 0.54

TGM D13 I256A (domain or fragment)
EC50 of signaling, MFB-F11 TGF-β reporter bioassay [5]: 4.5 ng/mL

TGM-D3 F235A (domain or fragment)
fold increase of KD against WT [3]: 4 fold

TGM-D3 I238A (domain or fragment)
fold increase of KD against WT [3]: > 20 fold

TGM D13 Y252A (domain or fragment)
EC50 of signaling, MFB-F11 TGF-β reporter bioassay [5]: 7 ng/mL

TGM D13 (TGM D1-D3), wild type (domain or fragment)
EC50 of signaling, MFB-F11 TGF-β reporter bioassay [5]: 3.9 ng/mL

TβRII S75L (from UniProt P37173 23-166) (receptor)
fold increase of KD against WT [1]: 200 fold

TβRII I76A (from UniProt P37173 23-166) (receptor)
fold increase of KD against WT [1]: 26 fold

TGM-D3 Y252A (domain or fragment)
fold increase of KD against WT [3]: > 20 fold

mmTGF-β27M, engineered TGF-β monomer (from UniProt P61812) (ligand)
Kd [6]: 35 nM

TGM-D3 V236A (domain or fragment)
fold increase of KD against WT [3]: 4 fold

TGM-D3 K254A (domain or fragment)
fold increase of KD against WT [2]: > 30 fold
fold increase of KD against WT [3]: > 20 fold

full-length TGM (TGF-β mimic) (natural protein)
stoichiometry N [7]: 1
stoichiometry N [8]: 1
Kd [9]: 610 nM
koff [9]: 0.1 s⁻¹
kon [9]: 2e+07 M⁻¹ s⁻¹
Kd [10]: 13 nM
koff [10]: 0.00078 s⁻¹
kon [10]: 59000 M⁻¹ s⁻¹

TGM-D3 (domain or fragment)
stoichiometry N [8]: 1
Kd [9]: 910 nM
koff [9]: 0.6 s⁻¹
kon [9]: 600000 M⁻¹ s⁻¹

TGM-FL (natural protein)
Kd [11]: 550 nM
stoichiometry N [11]: 0.84
Kd [4]: 52 nM
stoichiometry N [4]: 0.96

TβRII I73A (from UniProt P37173 23-166) (receptor)
fold increase of KD against WT [1]: 7 fold

TGF-β3(TβRII)2 binary complex (from UniProt P37173 23-166)
Kd [12]: 61 nM
dH [12]: -4.2 kcal/mol

TGM D13 I238A (domain or fragment)
EC50 of signaling, MFB-F11 TGF-β reporter bioassay [5]: 9.7 ng/mL
